# Reference: patent US20230220070A1 (ARIALYS THERAPEUTICS, published 2023)
# B1: ABN-5, one-armed anti-human NR1 antibody derived from P003-102 (antibody, human IgG1, lambda, L234A L235A)
# heavy: not shown
# light: NFMLTQPHSVSESPGKTVTISCTRSSGSIASNYVQWYQQRPGSAPTTVIYEDNQRPSGVPDRFSGSIDSSSNSASLTISGLKTEDEADYYCQSYDSSTVVFGGGTKLTVLGQPKANPTVTLFPPSSEELQANKATLVCLISDFYPGAVTVAWKADGSPVKAGVETTKPSKQSNNKYAASSYLSLTPEQWKSHRSYSCQVTHEGSTVEKTVAPTECS
# chain: not shown
# notes: Monovalent one-armed antibody made of one heavy chain (LALA; T366S, L368A, Y407V), one light chain and one Fc polypeptide
# B2: ABN-4, humanized one-armed anti-human NR1 antibody (antibody, human IgG1, kappa, L234A L235A)
# heavy: not shown
# light: DIQMTQSPSSLSASVGDRVTITCRPSENIYSNLAWYQQKPGKAPKLLVYAATNLADGVPSRFSGSGSGTDYTLTISSLQPEDIATYYCQHFWDSPPTFGQGTKLEIKRTVAAPSVFIFPPSDEQLKSGTASVVCLLNNFYPREAKVQWKVDNALQSGNSQESVTEQDSKDSTYSLSSTLTLSKADYEKHKVYACEVTHQGLSSPVTKSFNRGEC
# chain: not shown
# B3: ABN-2, humanized one-armed anti-human NR1 antibody (antibody, human IgG1, kappa, L234A L235A)
# heavy: not shown
# light: DLQMTQSPSSLSASVGDRVTITCKASQDVNTAVAWYQQKPGKAPKLLIYWASTRHTGVPSRFSGSGSGTDYTLTISSLQPEDFATYYCQQHYSTPFTFGQGTKVEIKRTVAAPSVFIFPPSDEQLKSGTASVVCLLNNFYPREAKVQWKVDNALQSGNSQESVTEQDSKDSTYSLSSTLTLSKADYEKHKVYACEVTHQGLSSPVTKSFNRGEC
# chain: not shown
# notes: also called ABN_178-m3
# Assays:
# [1] = molecular target: T1, human NMDAR (NR1/NR2B) on NMDAR expressing HEK cells (human, UniProt Q05586 19-938; Q13224 27-1484); experiment: flow cytometry on NMDAR-expressing HEK cells, PE-labelled anti-human IgG, GeoMFI
# T1 construct: whole, on cells; Commercial HEK cell line (Charles River Laboratories, CTN6121); The antibodies are directed against the NR1 subunit; also called cell surface NMDAR; NMDAR expressed in HEK cells
# Procedure: The binding activity of the produced humanized one-armed anti-human NR1 monoclonal antibodies was evaluated in a flow cytometry trial using the NMDAR expressing HEK cell.
# The NMDAR expressing HEK cells were induced overnight and collected. […] After staining, the cells were sedimented at 1,200 rpm for 5 minutes and the supernatant was removed. After adding 2% Dialyzed FBS to the cells, the cells were centrifuged and sedimented. After the supernatant was removed, the PE labeled anti-human IgG antibody (Jackson ImmunoResearch Laboratories, 109-116-098) was diluted 100 times with 2% Dialyzed FBS and added to cells for 30 minutes at 4° C. After staining, the cells were centrifuged and sedimented as described above. After removing the supernatant, the cells were suspended in 2% Dialyzed FBS and the steps after secondary staining were repeated. The flow cytometry (FACS Verse) was measured as described in Example 3. each antibody binds with the cell surface NMDAR from GeoMFI showing the PE Fluorescence intensity value was analyzed using FlowJo (Becton Dickinson, Ver. 10.0.8).
# [2] = molecular target: T2, human NR1-His protein (extracellular domain of human NR1 with linker, HisTag and AviTag) (human, UniProt Q05586 19-392); experiment: SPR (Biacore T200), antibody captured by anti-human IgG on a CM5 chip, human NR1-His protein as analyte, 1:1 binding model
# T2 construct: Expressed in Expi293F cells and purified from the supernatant; also called human NRA-His protein; human NR-His protein
# [3] = molecular target: T2, human NR1-His protein (extracellular …); experiment: competition ELISA on plate-coated human NR1-His protein; inhibition of the binding of biotin-labelled P003-102, streptavidin-HRP chemiluminescence
# Procedure: Specifically, 15 μL of the human NR1-His protein solution (1 μg/mL in Tris Buffered Saline (herein referred to as “TBS”)) was added to the 384 well plate (Thermo Fisher Scientific, 460372) and incubated overnight at 4° C. Then, the human NRA-His protein solution was removed and washed with 0.5% Tween-20 comprising TBS, NIPPON GENE, 310-07375 (referred to as “TBS-T”). After the wash, 50 uL of Blocking One (Nacalai Tesque, Inc., 03953-95) was added and incubated at room temperature for 1 hour or more.
# After the wash, 15 μL is added to the HRP-labelled streptavidin (Funakoshi Co., Ltd., 21130) diluted 8,000 times using diluent, and incubated at room temperature for 30 minutes.
binder,measurement,setting,value
B1,EC50 (read off the curve),[1],~0.8 µg/mL
B2,Kd,[2],878 pM
same,IC50 (read off the curve),[3],~2 µg/mL
B3,EC50 (read off the curve),[1],~0.05 µg/mL
same,IC50 (read off the curve),[3],~0.3 µg/mL
